Test results reported in patent US20080227704A1 (published 2008).
Positions count from the first letter of the chain named.

T1: recombinant purified mouse CXCL13 (mouse, UniProt O55038 22-109, biotinylated in the ELISA of Example 1.1.A.1 (sites not given); unlabelled in Biacore)
T1 sequence: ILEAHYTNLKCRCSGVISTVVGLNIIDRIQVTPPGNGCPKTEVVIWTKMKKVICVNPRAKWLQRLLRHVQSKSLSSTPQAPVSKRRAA

B1: XW25-2C4-4H8 (antibody, V domains shown)
VH: QVQLQQPGTELVKPGASVKLSCKASGYNFATYWMHWVKQRPGQGLEWIGNINPSDGGTNFNEKFNNKATLTVDKSSSTAYMQLSSLTSEDSAVYYCAKWGGHYVLYWYFDVWGTGTTVTVSS
VL: DIVLTQSPATLSVTPGDSVSLSCRASQSISSNLHWYQQKSHESPRLLITYASQSISGIPSRFSGSGSGTDFTLSINSVESEDVGVYFCQQSDSWPLTFGAGTKLELKR
notes: Mouse anti-mouse CXCL13 monoclonal antibody purified from hybridoma
B2: XW25-6A2-2F10 (antibody, V domains shown)
VH: B1 VH with M34V, N59S, F60Y, N65S, N66K, Q82E, Y108S
VL: B1 VL with S31N, K39R, L47I, Y50H, A51V, T72I, L73F, V83F, D92N
notes: as for B1
B3: XW25-4F2-5D2 (antibody, V domains shown)
VH: B1 VH with A30P
VL: B1 VL with S31N
notes: Mouse anti-mouse CXCL13 monoclonal antibody from hybridoma
B4: XW25-5D11-4F3-3D11 (antibody, V domains shown)
VH: EVQVQQSGAELVRPGSSVKMSCKTSGYTFTNYGIIWVKQRPGQGLEWIGYIYIGKGYTEYNEKFKGKATLTSDTSSSTVYMQLSSLTSEDSAIYFCARGAHYYGNAMDYWDQGTSVTVSS
VL: DIQMTQTTSSLSASLGDRVTISCRSSQDISNFLNWYQQRPDGTVKLLIYYTSRLHSGVPSRFSGSGSGTDYSLTISNLEQEDIATYFCQQGDTLPWTFGGGTKLEIKR
notes: as for B1
B5: XW25-3B5-3F4 (antibody, V domains shown)
VH: B1 VH with A16T, N28T, A30T, T31S, T58I, N59K, F60Y, N65K, N66S, Q82E
VL: B1 VL with S31N, T49N, S80T, V83F, V85M, D92N
notes: as for B3
B6: XW25-9C10-4B11 (antibody, V domains shown)
VH: B1 VH with N66S
VL: B1 VL
notes: as for B3
B7: XW25-7C7-5E5 (antibody, V domains shown)
VH: B1 VH with Q82H
VL: B1 VL with S28N, S30N, S31N, A51T
notes: as for B3
B8: XW25-8H6-4F9 (antibody, V domains shown)
VH: B1 VH with F60Y
VL: B1 VL with S30N, S31N, K39E, V83F, D92N
notes: as for B3

Each binder was assayed against T1, recombinant purified mouse CXCL13 (assay: cell-based or functional assay).

Binder	Average Kb (nM) Chemotaxis Assay
B1	23 nM
B2	8.12 nM
B3	16 nM
B4	18.9 nM

What follows are binders tested against T1, recombinant purified mouse CXCL13 (assay: ELISA, antibody captured by goat anti-mouse IgG Fc, biotinylated mouse CXCL13 detected with streptavidin-HRP).
Protocol: ELISA plates (Corning Costar, Acton, Mass.) were coated with 50 μL/well of 5 μg/ml goat anti-mouse IgG Fc specific (Pierce # 31170, Rockford, Ill.) in Phosphate Buffered Saline (PBS) overnight at 4 degrees Celsius. Plates were washed once with PBS containing 0.05% Tween-20. Plates were blocked by addition of 200 μL/well blocking solution diluted to 2% in PBS (BioRad #170-6404, Hercules, Calif.) for 1 hour at room temperature. Plates were washed once after blocking with PBS containing 0.05% Tween-20.
Fifty microliters per well of mouse sera or hybridoma supernatants diluted in PBS containing 0.1% Bovine Serum Albumin (BSA) (Sigma, St. Louis, Mo.) was added to the ELISA plate prepared as described above and incubated for 1 hour at room temperature. Wells were washed three times with PBS containing 0.05% Tween-20. Fifty microliters of biotinylated recombinant purified mouse CXCL13 diluted to 100 ng/mL in PBS containing 0.1% BSA was added to each well and incubated for 1 hour at room temperature. Plates were washed 3 times with PBS containing 0.05% Tween-20. Streptavidin HRP (Pierce # 21126, Rockland, Ill.) was diluted 1:20000 in PBS containing 0.1% BSA; 50 μL/well was added and the plates incubated for 1 hour at room temperature. Plates were washed 3 times with PBS containing 0.05% Tween-20. Fifty microliters of TMB solution (Sigma # T0440, St. Louis, Mo.) was added to each well and incubated for 10 minutes at room temperature. The reaction was stopped by addition of 1N sulphuric acid. Plates were read spectrophotmetrically at a wavelength of 450 nm.

Binder	EC50
B1	20 pM
B5	40 pM
B2	20 pM
B6	10 pM
B3	20 pM
B7	20 pM
B8	30 pM
B4	30 pM

These binders were tested against T1, recombinant purified mouse CXCL13 (assay: SPR (Biacore), antibody captured by goat anti-mouse IgG Fc, mouse CXCL13 injected at 0.78-50 nM, 25 C).
Protocol: Binding of antibodies to recombinant purified mouse CXCL13 were determined by surface plasmon resonance-based measurements with a Biacore® 2000 and 3000 instruments (Biacore® AB, Uppsala, Sweden) using running HBS-EP (10 mM HEPES pH 7.4, 150 mM NaCl, 3 mM EDTA, and 0.015% surfactant P20) at 25° C. Experimental data from all kinetic rate determinations of the antibody-antigen reaction were analyzed using Biaevaluation software version 4.0.1.
Mouse Anti Mouse CXCL13 antibodies to be captured as a ligand on the carboxymethyl dextran matrix were diluted in HBS-EP with 0.015% P20 at a concentration of 5-μg/mL. 50-100 μL aliquots were injected over the covalently coupled goat anti-mouse IgG Fc polyclonal antibody biosensor matrices at a flow rate of 25-50 μL/min. The net difference in the baseline signal and the signal after the completion of antibody injection was taken to represent the amount of bound Mouse Anti Mouse CXL13 antibody. Biosensor matrices were typically regenerated with subsequent 25 μL injections of 10 mM Glycine (pH 1.5) before the injection of the next sample. Glycine treatment disrupts the association of non-covalently bound proteins thus Anti CXCL13 antibody-mouse CXCL13 complex dissociates and washes off. The anti-mouse IgG antibody immobilized surfaces were completely regenerated. Aliquots of mouse CXCL13 antigen were injected at a flow rate of 25-50 μL/min over Anti CXCL13 purified monoclonal antibodies captured on the biosensor chips. The concentrations of mouse CXCL13 was ranging between 0.78-50 nM. HBS-EP with 0.015% P20 was flowed through each flow cell in between various cycles of antigens and also immediately before and after the end of kinetic analysis. The signal stabilized 120-180 seconds after the completion of the injection cycle. The net difference in signal between the baseline and the point corresponding to approximately 30 seconds after the completion of antigen injections was taken to represent the amount of antigen bound. The response was measured in resonance units (RU) representing the mass of bound CXCL13 antigen. CXCL13 antigen was also simultaneously injected over the goat anti mouse IgG Fc or goat IgG reference and reaction CM4 surface to record any nonspecific binding background.

Binder	Kd	koff	kon
B1	13 pM	3.6e-05 s⁻¹	2.7e+06 M⁻¹ s⁻¹
B2	2 pM	2.7e-06 s⁻¹	1.6e+06 M⁻¹ s⁻¹
B4			1e+06 M⁻¹ s⁻¹
